Data reported in US6518397B1, “Pharmaceuticals for modulating hormone responsiveness” (priority 1995, dated 2003).
“Also recorded” adds a separate entry of the source. Where no end group is shown, it is not given here.

B1: KVFFKR peptide (peptide)
peptide: KVFFKR
notes: also called 285; androgen receptor derived peptide

How the values were obtained:
[1] = molecular target: T1, DNA binding domain of recombinant rat androgen receptor (AR) / calreticulin (p60) (Homo sapiens, UniProt P27797); test: Gel mobility shift (gel retardation) assay: calreticulin (p60) inhibition of AR-ARE binding and its reversal by peptides/antibody; details: for Effectiveness of binding to calreticulin, in words: effect of substitution in KXFFX1R sequence, band shift; for Reversal of p60 (calreticulin) inhibition of AR-ARE binding: peptide, antibody or IgG pre-incubated with p60; for Reversal of GST-calreticulin (recombinant calreticulin) inhibition of AR-ARE interaction: calreticulin 2 μg, peptides at 50-fold molar excess
T1 construct: endogenous in cells
T1 sequence (P27797 18-417): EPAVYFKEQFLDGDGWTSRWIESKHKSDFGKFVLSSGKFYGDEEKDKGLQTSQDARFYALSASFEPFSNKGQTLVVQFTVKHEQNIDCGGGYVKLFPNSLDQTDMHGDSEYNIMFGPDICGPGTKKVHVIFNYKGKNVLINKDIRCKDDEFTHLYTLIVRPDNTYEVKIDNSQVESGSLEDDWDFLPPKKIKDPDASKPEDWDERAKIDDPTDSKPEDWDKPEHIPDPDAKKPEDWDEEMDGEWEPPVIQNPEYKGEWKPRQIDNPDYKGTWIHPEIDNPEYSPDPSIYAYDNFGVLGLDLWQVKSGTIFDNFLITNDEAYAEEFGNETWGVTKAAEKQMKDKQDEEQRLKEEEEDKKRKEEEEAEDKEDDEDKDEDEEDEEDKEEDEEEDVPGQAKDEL
Procedure: To determine whether p60 (calreticulin) could directly modulate the binding of nuclear hormone receptors to DNA via the KXFFX^1R [SEQ ID NO:1] sequence, the interaction of the DNA binding domain of recombinant androgen receptor with its hormone responsive element was analyzed by carrying out gel mobility shift assays.
(§1) As described in Rennie et al., 1993, DNA binding domain of recombinant rat androgen receptor was prepared as a GST-fusion protein using the pGEX-3X vector and purified by glutathione-agarose affinity chromatography. p60 (calreticulin) was purified by affinity chromatography on KLGFFKR-sepharose [SEQ ID NO:7], followed by gel electrophoresis as described in detail in Rojiani et al., 1991. […] Recombinant calreticulin (GST-fusion protein) was prepared as described by Baksh and Michalak, 1991. Gel retardation assays were carried out as described by Rennie et al., 1993. To analyze the effect of p60, or recombinant calreticulin, on receptor-DNA binding activity, the AR was pre-incubated with p60 for 30 min at 4° C. To analyze the effects of synthetic peptides, anti-calreticulin antibody, and non-immune IgG on p60 inhibition of AR-ARE binding, the peptide, antibody or IgG were pre-incubated with p60 for 30 min at 4° C. The androgen receptor preparation was then added to these mixtures and further incubated for 30 min at 4° C.
Affinity purified DNA binding domain of the recombinant rat androgen receptor (AR) was pre-incubated with or without the indicated concentrations of purified p60 at 4° C. for 30 min. After this pre-incubation the reaction mixtures were incubated with ^32P-labeled 26 base pair ARE (Rennie et al., 1993) (androgen response element), and analyzed by gel retardation assay. The sequence of the ARE used was [SEQ ID NO:28]:
Amino acids in the KXFFX^1R [SEQ ID NO: 1] sequence were modified. Androgen receptor and calreticulin were incubated in the presence of the modified peptides and allowed to interact with an oligonucleotide containing the androgen response element (the method of this assay is described in Example 3). The interaction was analyzed by gel mobility shaft assay (FIGS. 5A-5C).

[2] = system: retinoic acid receptor mediated gene transcription (bRARE luciferase) in P19 cells; test: RARE-driven luciferase reporter in P19 cells after peptide preincubation; format: cell-based, mouse; details: for Luciferase × 10^6: P19 cells, 10^-7 retinoic acid
Procedure: In order to test whether a peptide based on the calreticulin-binding KXGFFKR [SEQ ID NO:30] sequence modulates retinoic acid induced gene transcription in live cells, the p19 cells were transfected with a reporter vector consisting of a retinoic acid response element fused to the luciferase gene.
Cell culture conditions: Mouse embryonic carcinoma (P19) cell, grown in 60 mm dishes in 7.5% donor calf serum, 2.5% fetal calf serum alpha MEM (Gibco/BRL) were treated with the peptides KLGFFKR [SEQ ID NO:7] or KLRFGFK [SEQ ID NO:29] for three hours or overnight for 20 hours at 37° C., 5% CO2. With few exceptions, KLXFFKR [SEQ ID NO:31] is the peptide sequence specific within the binding domain of all steroid receptors. KLRFGFK [SEQ ID NO:29] is the scrambled peptide of the above sequence. Subsequently each plate was washed four times with serum free alpha MEM to remove excess peptides and replenished with fresh serum containing media. Cells were then transfected by standard calcium phosphate precipitation method (Current Protocols in Molecular Biology 9:1) with 1 microgram bRARE in pTKluc, 1.5 microgram pRSV bgal, 3 microgram pKS (carrier) per 60 mm dish. Following a 16 hour incubation at 37° C. 5% CO2, each plate was washed two times with serum free alphaMEM and replenished with serum containing media supplement with […] retinoic acid (Sigma R2625) and 800 microgram/ml G418 (Gibco 1181-031). Following another 24 hours incubation cells were washed three times with PBS and each 60 mm dish of cells was lysed in 100 microliters of 1 % triton X100, 100 mM KPO4 pH7.8, 1 mM DTT. Cell lysates were stored at −70° C. Prior to luciferase/bgal assays, cell debris were spun out on an Eppendorf microfuge (5415C) at 4° C. full speed for 20 minutes.
Luciferase assay: All reagents were equilibrated to room temperature and each sample was assayed independently. Ten microliters of cell lysate was incubated with 50 microliters of luciferase reagent (Promega E1483) in an Eppendorf tube. Thirty seconds later, the sample was immediately counted in a Beckman scintillation counter (LS6000IC) for one minute using an open window. Standards in the range of 0.001 nanogram to 1.0 nanogram was used to establish the linearity of the assay.
Beta-gal assay: Assay was done in a microtitre plate (Linbro 76-232-05). Ten microliters of cell lysate were mixed with 90 microliters of bgal reagent in 88 mM phosphate buffer, 11 mM KCl, 1 mM MgCl2, 55 mM 2ME, 4.4 mM chlorophenol red b-D-galactopyranoside (BMC 884-308). Incubation period varied from 30 minutes to 2 hours at 37° C. Results were read at 570 nm in an ELISA reader (Dynatech MR5000).

[3] = molecular target: T2, calreticulin as used in the gel mobility shift assays of Examples 7 and 15 (Homo sapiens (Human), UniProt P27797 18-417); test: gel mobility shift, PhosphorImager; reversal of calreticulin inhibition of RAR/RXR binding to its DNA response element; competitor RAR/RXR
T2 construct: Could be m1 or m2
T2 sequence: T1 sequence (P27797 18-417)
Text: (§2) This Table relates to the retinoic acid receptors (RAR/RXR) and the androgen receptor (AR). […] The data was quantified using a Phosphormager (Molecular Dynamics).

[4] = molecular target: T2, calreticulin as used in the gel …; test: gel mobility shift, PhosphorImager; reversal of calreticulin inhibition of AR binding to its DNA response element; competitor AR
Procedure: as §1, with “To analyze the effects of synthetic peptides, anti-calreticulin antibody, and non-immune IgG on p60 inhibition of AR-ARE binding, the peptide, antibody or IgG were pre-incubated with p60 for 30 min at 4° C.” left out
as §2

[5] = overnight preincubation with 10 micromolar peptide
[6] = overnight preincubation with 50 micromolar peptide
[7] = overnight preincubation with 100 micromolar peptide

Row | Molecule | Effectiveness of binding to calreticulin, in words [1] | % Reversal [3] [%] | % Reversal [4] [%] | further results
1 | KGRFRR [compound 420] | increased the effectiveness of binding to calreticulin |  |  | 
2 | KVAFKR (not fully specified) [compound 427] | decreased the ability of peptides to bind calreticulin |  |  | 
3 | KGFRRR [compound 421] | increased the effectiveness of binding to calreticulin |  |  | 
4 | bovine serum albumin: other protein of similar size, used as control [reference compound] |  |  |  | Effect of protein on AR-ARE (receptor-DNA) complex formation ([1]; protein pre-incubated with AR 30 min at 4° C.): did not have any effect on the nuclear receptor-DNA interaction
5 | KLRFGFK [reference compound] |  |  |  | Reversal of p60 (calreticulin) inhibition of AR-ARE binding [1]: much less effective; Corrected values luc/bgal [2, 5]: 42.04; Luciferase × 10^6 [2, 5]: 14 × 10^6; Corrected values luc/bgal [2, 6]: 41.34; Luciferase × 10^6 [2, 6]: 16 × 10^6; Corrected values luc/bgal [2, 7]: 32.26; Luciferase × 10^6 [2, 7]: 14 × 10^6
6 | KVFFKR [compound 285] |  |  |  | Reversal of GST-calreticulin (recombinant calreticulin) inhibition of AR-ARE interaction [1]: can also reverse the inhibition; also recorded: reversed; Reversal of p60 (calreticulin) inhibition of AR-ARE binding [1]: reversed
7 | KGFRKR [compound 415] | increased the effectiveness of binding to calreticulin |  |  | 
8 | KVFFKA [compound 430] | decreased the ability of peptides to bind calreticulin |  |  | 
9 | KGFFGR [compound 416] | decreased the ability of peptides to bind calreticulin |  |  | 
10 | KVFAKR [compound 429] | decreased the ability of peptides to bind calreticulin |  |  | 
11 | KGRFKR [compound 414] | increased the effectiveness of binding to calreticulin |  |  | 
12 | KLGFFKR |  |  |  | Reversal of GST-calreticulin (recombinant calreticulin) inhibition of AR-ARE interaction [1]: Reversal of this inhibition; Reversal of p60 (calreticulin) inhibition of AR-ARE binding [1]: reversed; Effect by itself on the receptor-DNA interaction ([1]; without p60, data not shown): neither KLGFFKR peptide [SEQ ID NO:7], anti-calreticulin antibody, nor non-immune IgG by themselves had any effect; Corrected values luc/bgal [2, 5]: 32.91; Luciferase × 10^6 [2, 5]: 13 × 10^6; Corrected values luc/bgal [2, 6]: 45.15; Luciferase × 10^6 [2, 6]: 20 × 10^6; Luciferase × 10^6 [2, 7]: 28 × 10^6; Luciferase activity (retinoic acid receptor mediated gene transcription), in words ([2]; pre-incubation of P19 cells with peptide): dose-dependent increase in luciferase activity
13 | KGFFKG [compound 417] | decreased the ability of peptides to bind calreticulin |  |  | 
14 | KGFFKR (also called 409) [KGFFKR peptide] |  | 100 |  | 
15 | B1 |  |  | 100 | 
16 | GLGFFKR [GLGFFKR peptide] |  | 45 | 100 | 
17 | KLDFFKR [KLDFFKR peptide] |  | 73 | 0 | 
18 | KLGFFKG [KLGFFKG peptide] |  | 22 | 63 | 
19 | KLGFRKR [KLGFRKR peptide] |  | 20 | 6 | 
20 | KLGFFGR [KLGFFGR peptide] |  | 65 | 85 | 
21 | KLGRFKR [KLGRFKR peptide] |  | 24 | 10 | 
22 | KLRFGFK (Control) [KLRFGFK scrambled peptide] |  | 34 |  | 
